Eight molecules from article PMC4980432, “Structure of a Complete ATP Synthase Dimer Reveals the Molecular Basis of Inner Mitochondrial Membrane Morphology” (Molecular Cell, 2016) can be followed below.

In data set [1] the target is T1, Y. lipolytica F1Fo-ATP synthase subunit a (Yarrowia lipolytica, UniProt Q36258 7-255).
T1 construct: subunit a of the mitochondrial F1Fo-ATP synthase, Yarrowia lipolytica; mitochondrially encoded; helices aH1 to aH6; source: endogenous, purified from Y. lipolytica mitochondria as part of 2YLF1Fo
T1 sequence (looked up): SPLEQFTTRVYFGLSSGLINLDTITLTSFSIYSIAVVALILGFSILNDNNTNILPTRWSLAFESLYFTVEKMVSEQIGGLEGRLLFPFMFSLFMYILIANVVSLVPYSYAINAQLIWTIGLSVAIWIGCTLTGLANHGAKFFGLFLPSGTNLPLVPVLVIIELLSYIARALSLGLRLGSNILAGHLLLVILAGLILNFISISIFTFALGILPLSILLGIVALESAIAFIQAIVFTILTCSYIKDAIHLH
Kind of data set: cryo-EM structure; single-particle cryo-EM of the purified dimer 2YLF1Fo; C2 symmetry imposed; 7.8 Å overall, 6.9 Å for F1 and 6.2 Å for the Fo dimer after masking; fitted with the YLF1c10 X-ray structure and homology models of the peripheral stalk. The settings on record: both partners purified.

Data set [2] has as its target T2, Y. lipolytica F1Fo-ATP synthase subunit α (Yarrowia lipolytica, UniProt Q6C326 25-536).
T2 construct: subunit α of the mitochondrial F1Fo-ATP synthase, Yarrowia lipolytica; three copies in each F1 head, in the states αE, αTP and αDP; also called αE; αTP; source: endogenous, purified from Y. lipolytica mitochondria as part of 2YLF1Fo, 1YLF1Fo and the YLF1c10 subcomplex
As to the kind of experiment: crystal structure; YLF1c10 subcomplex crystallised from the 1YLF1Fo complex without added nucleotides or inhibitors; 3.5 Å; molecular replacement with a model based on S. cerevisiae F1c10. Conditions: both partners purified.

Data set [3] has as its target T2, Y. lipolytica F1Fo-ATP synthase subunit …. Kind of data set: cryo-EM structure; single-particle cryo-EM of the purified dimer 2YLF1Fo; C2 symmetry imposed; 7.8 Å overall, 6.9 Å for F1 and 6.2 Å for the Fo dimer after masking; fitted with the YLF1c10 X-ray structure and homology models of the peripheral stalk. Conditions: both partners purified.
Data set [4] concerns the target T3, e/g heterodimer of the Y. lipolytica F1Fo-ATP synthase (subunits e and g) (Yarrowia lipolytica, UniProt B5FVG3 1-90; B5FVB8 1-138).
T3 construct: subunit e of the mitochondrial F1Fo-ATP synthase, Yarrowia lipolytica; predicted N-terminal trans-membrane helix with a GxxxG motif and a hydrophilic C terminus; subunit g of the mitochondrial F1Fo-ATP synthase, Yarrowia lipolytica; N-terminal matrix domain and predicted C-terminal trans-membrane helix with a GxxxG motif; the two subunits are not resolved from each other in the 6.2 Å map; also …
T3 sequence (looked up) 1: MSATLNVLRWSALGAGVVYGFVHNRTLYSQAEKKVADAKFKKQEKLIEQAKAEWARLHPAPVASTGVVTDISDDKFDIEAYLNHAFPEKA
T3 sequence (looked up) 2: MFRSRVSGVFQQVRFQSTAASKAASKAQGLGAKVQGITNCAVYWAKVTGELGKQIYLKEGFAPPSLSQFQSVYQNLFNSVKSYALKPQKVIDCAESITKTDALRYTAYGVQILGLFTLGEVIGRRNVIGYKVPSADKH
The description is as above. Conditions: both partners purified.

Data set [5] deals with the molecule itself. Described as above.
Data set [6] concerns the molecule itself. Kind of data set: crystal structure; YLF1c10 subcomplex crystallised from the 1YLF1Fo complex without added nucleotides or inhibitors; 3.5 Å; molecular replacement with a model based on S. cerevisiae F1c10.

T2 sequence (Q6C326 25-536): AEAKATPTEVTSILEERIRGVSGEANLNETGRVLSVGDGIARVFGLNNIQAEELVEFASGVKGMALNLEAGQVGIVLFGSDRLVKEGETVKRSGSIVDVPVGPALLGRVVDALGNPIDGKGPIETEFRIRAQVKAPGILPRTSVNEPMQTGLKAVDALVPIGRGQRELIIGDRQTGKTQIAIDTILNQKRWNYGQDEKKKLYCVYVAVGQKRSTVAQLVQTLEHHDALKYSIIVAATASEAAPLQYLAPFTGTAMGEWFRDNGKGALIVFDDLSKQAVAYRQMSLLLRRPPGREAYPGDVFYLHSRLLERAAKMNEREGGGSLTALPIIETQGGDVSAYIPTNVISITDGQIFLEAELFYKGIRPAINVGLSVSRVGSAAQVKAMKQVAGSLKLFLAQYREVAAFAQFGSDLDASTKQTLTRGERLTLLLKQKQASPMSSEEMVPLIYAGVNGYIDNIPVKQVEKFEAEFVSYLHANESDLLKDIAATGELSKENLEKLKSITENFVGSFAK

B1: Y. lipolytica F1Fo-ATP synthase subunit 8 (natural protein, Yarrowia lipolytica, UniProt Q36257 1-48, looked up)
chain: MPQLVPFYFTNQIFYGFASLSVIVYLFSIYILPHYLEIYVTRIFITKT
notes: subunit 8 of the mitochondrial F1Fo-ATP synthase, Yarrowia lipolytica; 48 residues; N-terminal MPQL motif, trans-membrane helix ended by Pro33; mitochondrially encoded; also called A6L in human; source: endogenous, purified from Y. lipolytica mitochondria as part of 2YLF1Fo
As for B1, the binding result in data set [1] is “binds”.

B2: Y. lipolytica F1Fo-ATP synthase subunit γ (natural protein, Yarrowia lipolytica, UniProt Q6C338 22-293, looked up)
chain: ATLREIEMRLKSIKNIEKITNTMKIVASTKLGKAQRAMATSKVYNEASEKVFENSETAVPENIEKRLWVVVSSDKGLCGSIHSQLARTVRRKLLDFESGEKLIDIVAVGEKIKAQLGRSNPEQMRLSFGGTGKEAPTFEEAAHIADEILALDTQYDDIEIVYNKVLSGISFEPIMKESYSAKAIEDAPKFGQYELEDDVVKNLADFSLANTIYAAMAEGHAAEISARRNAMDNASKNASDMINKYSILYNRTRQAVITNELVDIITGASSLE
notes: subunit γ of the mitochondrial F1Fo-ATP synthase, Yarrowia lipolytica; also called central γ subunit; source: endogenous, purified from Y. lipolytica mitochondria as part of the YLF1c10 subcomplex (from 1YLF1Fo)
For B2, in data set [2], the binding result is given as “binds”.

B3: Y. lipolytica F1Fo-ATP synthase subunit d (natural protein, Yarrowia lipolytica, UniProt Q6CFH9 1-176, looked up)
chain: MSVAAARSSAVKVDWGKIVSSLGLTGATVSSLQAFRKRHEEAKKNAYELQNQPTTVDFAHYRKVLKNQKVVDEIEQHFKSFKPVTYDVSKQLKTIDAFEAKAIEDAKATEGKVNQEIGDLQKTLENIESARPFDQLSVDDVFKARPDLEKKIEEMVKKGRWSVPGYNEKFGSVVLM
notes: peripheral stalk subunit d of the mitochondrial F1Fo-ATP synthase, Yarrowia lipolytica; also called d subunit; source: endogenous, purified from Y. lipolytica mitochondria as part of 2YLF1Fo
Take B3: the binding result in data set [3] is on record as “binds”.

B4: Y. lipolytica F1Fo-ATP synthase subunit b (natural protein, Yarrowia lipolytica, UniProt Q6C105 15-217, looked up)
chain: SNQVDPKVKATSILDSIPGNNVLSKTGVLATGVLGSIYAISNELYIVNDESIVLGVFAAFVVVVAKLGGPGYTSWADGYIENMRNILNTTRDKHTDAVKERIGDVSKLKDVVKTTQDLFAVSKDTVKLEAEVFETKQQVVLAAEAKSVLDSWVRYENSVRQREQKLLTETVISKIEKDLKDPKFQQKILQQSVEDIEKLFAKA
notes: subunit b of the mitochondrial F1Fo-ATP synthase, Yarrowia lipolytica; two trans-membrane helices at its N terminus; also called peripheral stalk subunit b; source: endogenous, purified from Y. lipolytica mitochondria as part of 2YLF1Fo
As for B4, the binding result in data set [3] and in data set [4] was “binds” in each case.

B5: Y. lipolytica F1Fo-ATP synthase subunit f (natural protein, Yarrowia lipolytica, UniProt Q6C9E6 7-103, looked up)
chain: LSTLIPPKVASPATLHGAPNAKRMADVVSFYKALPQGAAPALPKTANPFKLYYRKYFHPKSGKASGAPLLHLILGIFLFGYISDYQFHLKHHKNGAH
notes: subunit f of the mitochondrial F1Fo-ATP synthase, Yarrowia lipolytica; nuclear-encoded; in yeast a 100-residue subunit with a hydrophilic N-terminal domain and a predicted C-terminal trans-membrane helix; source: endogenous, purified from Y. lipolytica mitochondria as part of 2YLF1Fo
As for B5, in data set [5], the binding result is “binds”.

B6: Y. lipolytica F1Fo-ATP synthase subunit OSCP (natural protein, Yarrowia lipolytica, UniProt Q6C9B1 25-214, looked up)
chain: APVKVPVQLFGLDGTYATALYTAAAKESDLSKTEGSLAKLRDVFAQQPEVAQIVSNPTLSHEDKQTVVNVLSQAVGGDKTLTNFLTVISDNNRLALIPGIIEKFETLVNASKGLVEATVTSASELDKKTVNRIQAAIAGSSFVGEGELKLNLKVNPDILGGLIVEVAERTVDVSVASKIARLNHVLSEPI
notes: peripheral stalk subunit OSCP of the mitochondrial F1Fo-ATP synthase, Yarrowia lipolytica; source: endogenous, purified from Y. lipolytica mitochondria as part of 2YLF1Fo
On to B6, for which, in data set [3], the binding result was “binds”.

B7: Y. lipolytica F1Fo-ATP synthase subunit c (natural protein, Yarrowia lipolytica, UniProt Q37695 1-76, looked up)
chain: MQLVLAGKYIGAGLASIGLVGAGIGIAIVFAALINGVSRNPALKGQLFTYSILGFALSEATGLFALMIAFLLLYAV
notes: subunit c (subunit 9) of the mitochondrial F1Fo-ATP synthase, Yarrowia lipolytica; mitochondrially encoded; ten copies form the rotor ring; also called c subunit; c-ring; source: endogenous, purified from Y. lipolytica mitochondria as part of 2YLF1Fo and the YLF1c10 subcomplex
Take B7: the binding result in data set [1] was “binds”. Further, the “stoichiometry N” value in data set [6] came to 10.

B8: Y. lipolytica F1Fo-ATP synthase subunit h (natural protein, Yarrowia lipolytica, UniProt Q6C2V6 20-108, looked up)
chain: NLISEAYTREVRAFKAPKLSAKDAEGQVKPWSAPSAPKPPVVEGADAAELQAYAEAPVDVEGQTNSKSASPQANDEDWLAFEEEEGVAV
notes: peripheral stalk subunit h of the mitochondrial F1Fo-ATP synthase, Yarrowia lipolytica; also called equivalent of bovine F6; source: endogenous, purified from Y. lipolytica mitochondria as part of 2YLF1Fo
For the molecule B8, the binding result in data set [3] is listed as “binds”.
